The data set deals with the molecule itself. The data set can be described thus: Tricine SDS-PAGE, non-reducing against reducing; purified C5-His deglycosylated with glycopeptidase F, 12% gel.

B1: N-terminal His-tagged C5 (C5-His) single domain of immunoglobulin new antigen receptor (IgNAR) (domain or fragment)
chain: PKVYLLHPSTDEIDTENSATLMCLATNFHPAEIYVGWMANDTLLDSGYRTQVDSEKGSGSSFVTDRLRLTAAEWNSDTTYSCLVGHPSLNRDLIRSTNKSNGKPSSVNVSVVLSDTVKSCT
What is called stoichiometry N is the number of molecules, sites or subunits per partner or assembly. Take B1: the “stoichiometry N” value is 2.

Source of the values: paper PMC7247132 (BMC Proceedings, 2020).
